Source: article PMC3873893

Target: GST-WWCA (bovine N-WASP WWCA, A403-D505) (bovine) (UniProt Q95107)
Chain of UniProt Q95107 (Q95107 403-505): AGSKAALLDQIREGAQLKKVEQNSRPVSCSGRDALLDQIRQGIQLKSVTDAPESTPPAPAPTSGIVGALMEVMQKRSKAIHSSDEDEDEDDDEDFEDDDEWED

barbed-end rate of filaments tethered to WWCA nanofibers, 1 μM actin, 1 mM Mg^2+: 21.4 subunits/s
Substance: rabbit skeletal muscle actin (Mg-ATP actin; filament barbed ends) (from UniProt P68135 1-377) (natural protein)
